We go through 84 variants from the RNAGym collection of RNA variant scans (doi:10.1073/pnas.2313332121).

Fewer inactive variants are shown than the library holds.

B1: TPR 5TU (parent)
chain: GGAUCUUCUCGAUCUAACAAAAAAGACAAAUCUGCCACAAAGCUUGAGAGCAUCUUCGGAUGCAGAGGCGGCAGCCUUCGGUGGCGCGAUAGCGCCAACGUUCUCAACUAUGACACGCAAAACGCGUGCUCCGUUGAAUGGAGUUUAUCAUG

The variants in this data set derive from B1. As to the kind of experiment: polymerase ribozyme fitness, log enrichment relative to wild type (log ratio); higher = more active; in vitro selection for triplet polymerase activity. An outline of the steps: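 A heterodimeric triplet polymerase ribozyme had each of its subunits mutagenized by PCR into a library, which was transcribed. One round of in vitro selection, done in triplicate, annealed each library with a biotinylated primer, its partner subunit and triplets, then incubated it frozen at −7 °C before gel excision of extended constructs, streptavidin-bead capture and RT-PCR. Fitness is the logarithm of genotype enrichment relative to wild-type enrichment, based on Illumina sequencing of inputs and outputs and inverse-variance-weighted replicate averages. A base-2 logarithm is used, and genotypes were kept only with ≥10 input reads and ≥1 read per output.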
Turning to A89U U148G, the “polymerase ribozyme fitness (log ratio)” value is -3.92.

As for G74C A89U U146C, the “polymerase ribozyme fitness (log ratio)” value is not above -4.2.

U6G A12U A20U C51A C96A G100U C118A U148C: the “polymerase ribozyme fitness (log ratio)” value was not above -4.2.

With A23U U55A, the “polymerase ribozyme fitness (log ratio)” value is -3.85.

Regarding U134A U148G, the “polymerase ribozyme fitness (log ratio)” value was not above -4.2.

As to A16G G48U G133U, the “polymerase ribozyme fitness (log ratio)” value was -3.99.

For the variant C38A A64G C69G C87U U134A U151C, the “polymerase ribozyme fitness (log ratio)” value is not above -4.2.

For the variant U56A A73U C79G G88A, the “polymerase ribozyme fitness (log ratio)” value was not above -4.2.

As for U44G U56A C79A G124U, the “polymerase ribozyme fitness (log ratio)” value is not above -4.2.

In the case of U56A C103U, the “polymerase ribozyme fitness (log ratio)” value is -0.0268.

On to C38A A41U A52C, for which the “polymerase ribozyme fitness (log ratio)” value was -2.5.

Regarding U45G A47C A142G, the “polymerase ribozyme fitness (log ratio)” value was -3.91.

For G128C A150U, the “polymerase ribozyme fitness (log ratio)” value is -4.

Consider U61G C93A, for which the “polymerase ribozyme fitness (log ratio)” value was -4.13.

In the case of A17U G25C, the “polymerase ribozyme fitness (log ratio)” value was -4.13.

G81A G152C: the “polymerase ribozyme fitness (log ratio)” value was -3.29.

Take G11C C63U C85U G86U C114U: the “polymerase ribozyme fitness (log ratio)” value is not above -4.2.

In the case of G42A G62C C116G C125U A142U A150C, the “polymerase ribozyme fitness (log ratio)” value is not above -4.2.

For the variant A17G A29C A107U U135G, the “polymerase ribozyme fitness (log ratio)” value is not above -4.2.

In the case of A24U U45C U101G A106G, the “polymerase ribozyme fitness (log ratio)” value was 0.694.

On to A16C A19U A73G C87A U148G G152U, for which the “polymerase ribozyme fitness (log ratio)” value was not above -4.2.

For G86U C118U, the “polymerase ribozyme fitness (log ratio)” value was -1.69.

As for A26U C43U U53A G100C, the “polymerase ribozyme fitness (log ratio)” value was not above -4.2.

In the case of A41C C43U C63U G88U, the “polymerase ribozyme fitness (log ratio)” value was not above -4.2.

Consider C14A A17C A41C C96U A115U G141A, for which the “polymerase ribozyme fitness (log ratio)” value is not above -4.2.

On to C93U C118A C125A U139C, for which the “polymerase ribozyme fitness (log ratio)” value was -4.16.

For U45A A52C, the “polymerase ribozyme fitness (log ratio)” value is not above -4.2.

Turning to U45A G92U, the “polymerase ribozyme fitness (log ratio)” value is -2.75.

Regarding G42A G50U U53A U55A G83A U90C U144A, the “polymerase ribozyme fitness (log ratio)” value is not above -4.2.

Consider G59A C87G G140C, for which the “polymerase ribozyme fitness (log ratio)” value was not above -4.2.

For the variant C87A C93G C114U G141C, the “polymerase ribozyme fitness (log ratio)” value is not above -4.2.

Take C51U C99U: the “polymerase ribozyme fitness (log ratio)” value is -0.392.

As to G62A G141U, the “polymerase ribozyme fitness (log ratio)” value was found to be 1.11.

Regarding G70C C76A C79U C87A, the “polymerase ribozyme fitness (log ratio)” value is not above -4.2.

As to C5A C103A, the “polymerase ribozyme fitness (log ratio)” value was -1.35.

C5U U56A C75U G83C: the “polymerase ribozyme fitness (log ratio)” value was -0.766.

As to U44A C72U A73G G86U A138C, the “polymerase ribozyme fitness (log ratio)” value was not above -4.2.

As to C36U C54G A66C G84U C95A U101G, the “polymerase ribozyme fitness (log ratio)” value is not above -4.2.

As for A20U G25C G141A, the “polymerase ribozyme fitness (log ratio)” value was -4.03.

In the case of U6C C32A A49U G70U U82G C87U C105G, the “polymerase ribozyme fitness (log ratio)” value was not above -4.2.

As for C93G U101C, the “polymerase ribozyme fitness (log ratio)” value was -3.2.

As for C57G G88A C96U U139C A142G, the “polymerase ribozyme fitness (log ratio)” value was not above -4.2.

Take C5U G92A C114U: the “polymerase ribozyme fitness (log ratio)” value is -3.86.

Regarding C35G U55G G81A A98G U102A, the “polymerase ribozyme fitness (log ratio)” value is not above -4.2.

For G48C A49G A113G, the “polymerase ribozyme fitness (log ratio)” value is not above -4.2.

In the case of C51G G83U A110C G140C, the “polymerase ribozyme fitness (log ratio)” value was not above -4.2.

For U61A G86U, the “polymerase ribozyme fitness (log ratio)” value is -2.99.

Turning to U55G A137C, the “polymerase ribozyme fitness (log ratio)” value is -3.36.

As for C8U A30U U44A A97G U101G A113G C132U C149G A150U, the “polymerase ribozyme fitness (log ratio)” value was not above -4.2.

For U4G U9C A23U C43A U56G C87U U111G C132U, the “polymerase ribozyme fitness (log ratio)” value was not above -4.2.

Consider G86C C105U, for which the “polymerase ribozyme fitness (log ratio)” value was -1.5.

For A22C U56A C57G G86U A142G, the “polymerase ribozyme fitness (log ratio)” value was -3.37.

As for U4G A19C G58U C69U C96A, the “polymerase ribozyme fitness (log ratio)” value is -0.414.

Regarding A47G A52U G68U C79A C93U C99A G141C A142G G143U, the “polymerase ribozyme fitness (log ratio)” value was not above -4.2.

Consider A30C C38A C54U A60G G84U G141A G143A, for which the “polymerase ribozyme fitness (log ratio)” value is not above -4.2.

Consider A3G A19C G92A A98G, for which the “polymerase ribozyme fitness (log ratio)” value is -3.18.

In the case of G11C C116G, the “polymerase ribozyme fitness (log ratio)” value is -0.794.

Turning to G11U A52U, the “polymerase ribozyme fitness (log ratio)” value is -2.33.

For C51A G58C, the “polymerase ribozyme fitness (log ratio)” value was -2.22.

With G128A G141A G143U U144G U151A, the “polymerase ribozyme fitness (log ratio)” value is not above -4.2.

As for A91G G140U, the “polymerase ribozyme fitness (log ratio)” value was -4.19.

As for C54A G67U, the “polymerase ribozyme fitness (log ratio)” value was -4.

Take G59C A119C: the “polymerase ribozyme fitness (log ratio)” value is -0.18.

Consider A20U C93A, for which the “polymerase ribozyme fitness (log ratio)” value is -2.86.

As to U4A C35G G46A C75G G94C C105G, the “polymerase ribozyme fitness (log ratio)” value was not above -4.2.

For C38A G86C, the “polymerase ribozyme fitness (log ratio)” value was -3.27.

For the variant G34C A41G C54A U135C U145G, the “polymerase ribozyme fitness (log ratio)” value is not above -4.2.

In the case of U4C C95U A122U, the “polymerase ribozyme fitness (log ratio)” value is -0.317.

Turning to C57G C75U C108A A110G, the “polymerase ribozyme fitness (log ratio)” value was not above -4.2.

Turning to U53G U55A U148C, the “polymerase ribozyme fitness (log ratio)” value was not above -4.2.

A41C G86U A89G G140A: the “polymerase ribozyme fitness (log ratio)” value is not above -4.2.

A26U G50A A64G U101G G141A: the “polymerase ribozyme fitness (log ratio)” value is not above -4.2.

Take C85U U145A: the “polymerase ribozyme fitness (log ratio)” value is -0.468.

Regarding A66U C87A A106U G143C, the “polymerase ribozyme fitness (log ratio)” value was not above -4.2.

On to U55A C72A A119U, for which the “polymerase ribozyme fitness (log ratio)” value is not above -4.2.

A37C G92A U146G: the “polymerase ribozyme fitness (log ratio)” value is -4.01.

Consider G50U U139C, for which the “polymerase ribozyme fitness (log ratio)” value was -3.65.

Consider U13G A40U C96G A121G, for which the “polymerase ribozyme fitness (log ratio)” value is -2.57.

For A41C U82C, the “polymerase ribozyme fitness (log ratio)” value is -1.14.

As for A39U U55G U82C C85U U146C, the “polymerase ribozyme fitness (log ratio)” value was -2.49.

With U45A G126A, the “polymerase ribozyme fitness (log ratio)” value is -2.15.

Take G94C A97G C116A: the “polymerase ribozyme fitness (log ratio)” value is -0.587.

In the case of A52G U53C G58A A142C, the “polymerase ribozyme fitness (log ratio)” value is -3.35.

For the variant U7C U9G A17U A26G G84A C116A, the “polymerase ribozyme fitness (log ratio)” value was -3.98.
